{"source": "paper PMC11717359", "about": "“A new pipeline SPICE identifies novel JUN-IKZF1 composite elements”", "binders": {"B1": {"name": "IL10 CNS9 WT probe (dsDNA)", "DNA 1": "GAGGTTGCAGTTTCGTTGTGAGTCAGGCCTGCTGA", "DNA 2": "TCAGCAGGCCTGACTCACAACGAAACTGCAACCTC"}}, "molecular_target": "IKZF1 (Ikaros), recombinant (Homo sapiens, UniProt Q13422 1-519)", "sequence (Q13422 whole entry)": "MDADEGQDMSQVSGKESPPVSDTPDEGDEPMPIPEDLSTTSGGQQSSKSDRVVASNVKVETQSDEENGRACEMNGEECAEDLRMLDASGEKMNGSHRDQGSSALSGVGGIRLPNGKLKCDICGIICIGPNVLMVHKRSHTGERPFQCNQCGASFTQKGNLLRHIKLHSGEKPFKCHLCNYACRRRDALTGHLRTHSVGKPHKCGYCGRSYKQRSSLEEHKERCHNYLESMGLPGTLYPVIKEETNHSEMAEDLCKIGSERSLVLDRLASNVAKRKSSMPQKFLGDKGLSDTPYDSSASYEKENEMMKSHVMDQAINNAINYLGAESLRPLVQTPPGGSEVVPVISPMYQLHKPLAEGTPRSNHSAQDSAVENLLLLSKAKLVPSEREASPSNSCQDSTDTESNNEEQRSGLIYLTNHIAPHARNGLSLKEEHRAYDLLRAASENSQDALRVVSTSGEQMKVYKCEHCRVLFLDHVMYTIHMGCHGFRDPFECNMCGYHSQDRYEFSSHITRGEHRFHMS", "assay": "EMSA; 1 ug IKZF1 alone; EMSA per LI-COR kit protocol (829-07910), 100 nM IR700 probe, 4-12% TBE gel in 0.5x TBE; binding buffer, pH and temperature not stated", "conditions": "protein: commercial; chain copies: 2; label: IRDye 700", "data": [{"binder": "B1", "values": [{"measurement": "binding result", "result": "no binding"}]}]}
